# Measured values taken from article PMC8872386 (Chemical Science, 2021).
# Ends that are not written are not given here.
# Experiments:
# Assay in all cases: fluorescence polarisation
# [1] = target: Sgo1 peptide (residues 446–466) bearing fluorescein (UniProt Q5FBB7)
# [2] = target: chemically synthesized full-length heterochromatin protein 1α without PTMs (21) (UniProt P45973 1-191)
# recombinant HP1α = recombinant HP1α (UniProt P45973 1-191)
# Sequence of recombinant HP1α (P45973 whole entry): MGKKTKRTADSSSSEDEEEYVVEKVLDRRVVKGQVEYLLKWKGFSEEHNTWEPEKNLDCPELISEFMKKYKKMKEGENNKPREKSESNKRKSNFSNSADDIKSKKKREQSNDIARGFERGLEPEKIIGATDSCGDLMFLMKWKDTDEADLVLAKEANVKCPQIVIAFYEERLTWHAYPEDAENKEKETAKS
# Sequence of chemically synthesized full-length heterochromatin protein 1α without PTMs (21) (P45973 whole entry): as above
Molecule,Kd [1],Kd [2],Kd (recombinant HP1α)
chemically synthesized HP1α ubiquitinated at K154 (21f) (from UniProt P45973 1-191; P0CG48 1-76),1870 nM,,
"NVSLYPVVKIRRLSLSPKKNK (peptide, UniProt Q5FBB7 446-466, looked up, also: fluorescein, position not given here) [Sgo1 peptide (residues 446–466) bearing fluorescein]",,470 nM,510 nM
